Assay: soluble on expression in E. coli; label from the status in PepcDB or PDB records

Soluble on expression in E. coli, soluble:
MDSETLPESEKYNPGPQDFLLKMPGVNAKNCRSLMHHVKNIAELAALSQDELTSILGNAANAKQLYDFIHTSFAEVVSKGKGKK, MDSFKVVLEGPAPWGFRLQGGKDFNVPLSISRLTPGGKAAQAGVAVGDWVLNIDGENAGSLTHIEAQNKIRACGERLSLGLSRAQPVQSKPQKVQTSDKQLLRQPVPDASKQRLMEDTEDWRPRPGTGQSRSFRILAHLTGTEFMQDPDEEFMKKSREKYVLELQSPRYTRLRDWHHQRSAHVLNVQS, MDSMDHRIERLEYYIQLLVKTVDMDRYPFYALLIDKGLSKEEGEAVMRICDELSEELATQKAQGFVTFDKLLALFAGQLNEKLDVHETIFALYEQGLYQELMEVFIDIMKHFD, MDSSVPMIDLSSGDDEEVEVAMRRSYLLPPVPERPDGFPSLLFGNGNLSRSTLSINQEISMAPSPFSEITVSSQRPLVARSGSNSSEHNLQIKEAVKKKPVADIAHVSGTFVCVCVRGAQKNFYQKYLIATPSIPKLNTFE, MDSVELCLPESFSLHYEEELLCRMSNKDRHIDSSCSSFIKTEPSSPASLTDSVNHHSPGGSSDASGSYSSTMNGHQNGLDSPPLYPSAPILGGSGPVRKLYDDCSSTIVEDPQTKCEYMLNSMPKRLCLVCGDIASGYHYGVASCEACKAFFKRTIQGNIEYSCPATNECEITKRRRKSCQACRFMKCLKVGMLKEGVRLDRVRGGRQKYKRRIDAENSPYLNPQLVQPAKKPYNKIVSHLLVAEPEKIYAMPDPTVPDSDIKALTTLCDLADRELVVIIGWAKHIPGFSTLSLADQMSLLQSAWMEILILGVVYRSLSFEDELVYADDYIMDEDQSKLAGLLDLNNAILQLVKKYKSMKLEKEEFVTLKAIALANSDSMHIEDVEAVQKLQDVLHEALQDYEAGQHMEDPRRAGKMLMTLPLLRQTSTKAVQHFYNIKLEGKVPMHKLFLEMLEAKV, MDTSSVGGLELTDQTPVLLGSTAMATSLTNVGNSFSGPANPLVSRSNKFQNSSVEDDDDVVFIEPVQPPPPSVPVVADQRTITFTSSKNEELQGNDSKITPSSKELASQKGSVSETIVIDDEEDMETNQGQEKNSSNFIERRPPETKNRTNDVDFSTSSFSRSKTKTGVGPFNPGRMNVAGDVFQNGESATHHNPDSWISQSASFPRNQKQPGVDSLSPVASLPKQIFQPSVQQQPTKPVKVTCANCKKPLQKGQTAYQRKGSAHLFCSTTCLSSFSHKPAPKKLCVMCKKDITTMKGTIVAQVDSSESFQEFCSTSCLSLYEDKQNPTKGALNKSRCTICGKLTEIRHEVSFKNMTHKLCSDHCFNRYRMANGLIMNCCEQCGEYLPSKGAGNNVLVIDGQQKRFCCQSCVSEYKQVGSHPSFLKEVRDHMQDSFLMQPEKYGKLTTCTGCRTQCRFFDMTQCIGPNGYMEPYCSTACMNSHKTKYAKSQSLGIICHFCKRNSLPQYQATMPDGKLYNFCNSSCVAKFQALSMQSSPNGQFVAPSDIQLKCNYCKNSFCSKPEILEWENKVHQFCSKTCSDDYKKLHCIVTYCEYCQEEKTLHETVNFSGVKRPFCSEGCKLLYKQDFARRLGLRCVTCNYCSQLCKKGATKELDGVVRDFCSEDCCKKFQDWYYKAARCDCCKSQGTLKERVQWRGEMKHFCDQHCLLRFYCQQNEPNMTTQKGPENLHYDQGCQTSRTKMTGSAPPPSPTPNKEMKNKAVLCKPLTMTKATYCKPHMQTKSCQTDDTWRTEYVPVPIPVPVYIPVPMHMYSQNIPVPTTVPVPVPVPVFLPAPLDSSEKIPAAIEELKSKVSSDALDTELLTMTDMMSEDEGKTETTNINSVIIETDIIGSDLLKNSDPETQSSMPDVPYEPDLDIEIDFPRAAEELDMENEFLLPPVFGEEYEEQPRPRSKKKGAKRKAVSGYQSHDDSSDNSECSFPFKYTYGVNAWKHWVKTRQLDEDLLVLDELKSSKSVKLKEDLLSHTTAELNYGLAHFVNEIRRPNGENYAPDSIYYLCLGIQEYLCGSNRKDNIFIDPGYQTFEQELNKILRSWQPSILPDGSIFSRVEEDYLWRIKQLGSHSPVALLNTLFYFNTKYFGLKTVEQHLRLSFGTVFRHWKKNPLTMENKACLRYQVSSLCGTDNEDKITTGKRKHEDDEPVFEQIENTANPSRCPVKMFECYLSKSPQNLNQRMDVFYLQPECSSSTDSPVWYTSTSLDRNTLENMLVRVLLVKDIYDKDNYELDEDTD, MDTVNNYRVLEHKAAGHDGTLTDGDGLLIFKPAFPQELEFYKAIQVRDVSRRKSSADGDAPLCSWMPTYLGVLNEGAKIEQSGDAALLKIDERLSDSTDNLDSIPVKSEKSKQYLVLENLLYGFSKPNILDIKLGKTLYDSKASLEKRERMKRVSETTTSGSLGFRICGMKIQKNPSVLNQLSLEYYEEEADSDYIFINKLYGRSRTDQNVSDAIELYFNNPHLSDARKHQLKKTFLKRLQLFYNTMLEEEVRMISSSLLFIYEGDPERWELLNDVDKLMRDDFIDDDDDDDDNDDDDDDDAEGSSEGPKDKKTTGSLSSMSLIDFAHSEITPGKGYDENVIEGVETLLDIFMKFLEHHHHHH, MDTWKVGPVELKSRLILGSGKYEDFGVMREAIAAAKAEVVTVSVRRVELKAPGHVGLLEALEGVRLLPNTAGARTAEEAVRLARLGRLLTGERWVKLEVIPDPTYLLPDPLETLKAAERLIEEDFLVLPYMGPDLVLAKRLAALGTATVMPLAAPIGSGWGVRTRALLELFAREKASLPPVVVDAGLGLPSHAAEVMELGLDAVLVNTAIAEAQDPPAMAEAFRLAVEAGRKAYLAGPMRPREAASPSSPVEGVPFTPTGPRPGRGPQ, MDVNVNIDTNAEKQAISPYIYGTNQDFSNAKVTARRIGGNRSTGYNWENNDSNAGTDWKNESDNYWLTLYDVPKEKYNEPASVYTAFHDKSLAMGVPYSLVTLQAGGYVAADQSGPLANTDVAPSSKWKKVEFNKNGPLSLTPDTTDGSVYMDEFVNYLVNKYGSASGSKGIKGYSLDNEPSLWPSTHPLIHPDKTKCSEVLDKDTQLAQVVKKIDPAAETFGPALFGFSAFNDFNSSPDWSSVKGNYQWFIDYYLDNMKKNSDAAGKRLLDALDLHWYPEAKGGGQRVTTSDTSNVDCNKARMQAPRSLWDSTYTEDSWIGQWCKWGLPLIPKVKSSIDKYYPGTKLSFSEYNYGGEDHISGGIAQADALGVFGKYGVYFATYWECNSDKNNYVQSAFNLYNNYDGNNSKYGDTDVKCDTSDINNSSTYASVTSNDGNKMDIIVMNKNYTDSINFNFNVSSNKNYTSGQVWGFDSNSSNITKRDDVSSISGNKFTYKIPALTAVHIVLLEHHHHHH

Soluble on expression in E. coli, not soluble:
MDRTIYDNYVKILRKELVPALGCTEPIALAYASAKAREVLGEFPEHMTVWCSGNIIKNVKGVKVPNSGGMKGVEAAAVLGLAGGDPSQALEVLEAVTQTDIKRTKELLRESFCDCCLKEGVANLYIEVQVVNGENEATVIIEQEHTNITRIEKNGKIVYAHKKEVSGEEIEVDKSLLNLADILVFAQEVDLNEVRDVLARQIRYNSRIAKEGLEHEWGAQVGRVIAEEFGTTVQWKAVASAAAGSDARMSGCSLPVIINSGSGNQGMTCSLPVIEYGKELKKSEEEIYRALCVSNLVALNQKRYIGSLSAYCGAVCAAAGAGAGITYLCGGNLEQIQNTVVNTIADAGGIVCDGAKPSCAAKIATSLQAAILSHKMAMRGLVFGSGEGLVMDCPEDTIKAVGYVGRAGMKQTDVEILNLMIGKTKIEDIEK, MDSARALIARGWGVSLVSRCLRVSRAQLHVILRRTDDWMDGRRSRHTDDTDVLLRIHHVIGELPTYGYRRVWALLRRQAELDGMPAINAKRVYRLMRQNALLLERKPAVPPSKRAHTGRVAVKESNQRWCSDGFEFCCDNGERLRVTFALDCCDREALHWAGTTGGFNSETVQDVMLGAVERRFGNDLPSSPVEWLTDNGSCYRANETRQFARMLGLEPKNTAVRSPESNGIAESFVKTIKRDYISIMPKPDGLTAAKNLAEAFEHYNEWHPHSALGYRSPREYLRQRACNGLSDNRCLEI, MDSKILTMFNQGKHEEAIQAAVKAIDAAPDDPKRYAMLATMLISIKALDQAGELLAKARQLFPEDLELQYTAGLFAYAQADFAAAVSWFAKVRTDQTLKNDATYMLALSYQQAGQPTKALAFALTAHDLAPKQLDTALLAADLLMANDVFDAAARVLKPLLATEQPQVLFTYGMALSAAGKDGSHYLNKAKALDPKGYDQKANIVADINRFLRLQEGLEHHHHHH, MDSPRVERFRAQVTDTFVPNLTWAMAPVTATINLFQDFQSYQRLAQQNRELRSELRRMQAWKEAALQLEQENARLLDLNNVRLDPRLTYITGVVLADSGSPFRQSVLINVGSRDGLVDGWATMDGIGLVGRISGVADKTARVILLTDASSRIPAIIQPSGQRVIVSGDNSAAPFIDFLEDSDLVKPGHRVISSGDGGVFPAGLLIGQVAADPTGKLRVIMAADYQRLEFLRVLRHHGTTTVSDSAQIIGPQLPVAEATQLEHHHHHH, MDTGELHDLTVKGAVVTQLERCEVACQRLFQNLALLGLELQNSESITEGVCDSKAASDLGSSVELLENEERALRLCVDRFVLELRQVENLAKTLDGIREEEERILSLEQRSIEQAERCFYLWNDAREMLRGTRLTSIKEVLESAARYPRIPSWTPLPTSN, MDVADISKKQSILKQFEREGVKNVLFTDCLRQHDENVKKHPVIRCLMFQIVPLVSKLIESTSRFHREEERCYCLMVIGVPNVGKSSLINALRRTYLKKGKASKVGAEPGITKAVLTKIQVCERPIIHLLDTPGVLPPRIENIETGMKLALCGTVLDHLVGEDVIADFLLFSLNRLERFSYVEKYSLEEPCDDIQHVLKCIAVKLGKTRRVKAITGVGNITVQLPDYSAAAYDFIRAFRKGELGKVMLD, MDVDRLMRDLSVEQLENIQQNLEKEMEGKRESLREMVGRRYRDVLEASSEVRHVCSLADKLASDIANTRVGYQSTHVRTGGREEQKAGEHLYAVNYLVSSIGGDSGEPLDDVVALCMVEHLQKQLISNHSSPMIHKNARALTNRIVATRSELEFQNCSTLLDISRSDWATNQLAAIALLQGKDISQLLELYLEKRFEHVTHLIEDSATILNIVDEMKKTLAVVEELFVHGELIHAIHSVCNGQYKCELIREMCADQAYSFEKTINEDMDRVWRHLREKLSGRGAGTLPSQLVGEKCAAWIEKTCAVTHKLVAEVCEYFDNLDQIIDLLQAITASLKQDWPRIGSNRSVYDKLLQTAVVDKAKILLIQMIESIELFAKKRFESTSDGPQTAIFDERTYHPDSQSHIGISTQLYNCVKTLWESLEQTNEKCAQFETICTPMADMATSNALKETMATNVLQLLLRLCELHSDKQEGSARFLARARLALALVHSESTLICKLLDKDSQRITSLNQRLHSIIEKNLG, MDVVFETVNCLESNRKIIIVKLPDGSSEKFFFNVTKRAFEKIVCVDGKPVQMDSDLTPHHSVWCPHIHKNIIFAYNHLLRMNLQYLFDSETLSFHETKCDQCHLDPKKSTNVKQILLVAASPKIRRPIVLTMSQEGRVLKMCYDEIEKNYVDMSPTEIKALTQLKDVTAAMEDLTLDSKVMESDLIPLVKEKSVFLPHDSILIAKNKKTNKIGQYVFDRYHHQFLEVVMSDIEIKQEMPNIAKLINVTMSTKTEQAISIRCTPGIGELKKFHYNRETASFDPMEEKAIVESDEEIQSFIEEIEKTQDIVCKKIKAILWFYHNVKPFLAKKLENPVKKNNDYKRYVFKPVEPEEKVDDEMDSVSEPESDSLSMSSSSRSSSRSSLSSDDSFEMVVDIDFVE
